Reference: patent US20050074865

The substances below were run against recombinant human TNFα (RDI) (UniProt P01375).
Sequence of recombinant human TNFα (RDI) (P01375 77-233): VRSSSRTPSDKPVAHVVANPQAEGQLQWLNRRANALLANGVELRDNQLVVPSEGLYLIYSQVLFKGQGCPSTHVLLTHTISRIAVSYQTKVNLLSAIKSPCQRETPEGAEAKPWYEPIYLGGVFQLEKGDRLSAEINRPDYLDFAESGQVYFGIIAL

Sequence of Enterokinase (P98072 2-800): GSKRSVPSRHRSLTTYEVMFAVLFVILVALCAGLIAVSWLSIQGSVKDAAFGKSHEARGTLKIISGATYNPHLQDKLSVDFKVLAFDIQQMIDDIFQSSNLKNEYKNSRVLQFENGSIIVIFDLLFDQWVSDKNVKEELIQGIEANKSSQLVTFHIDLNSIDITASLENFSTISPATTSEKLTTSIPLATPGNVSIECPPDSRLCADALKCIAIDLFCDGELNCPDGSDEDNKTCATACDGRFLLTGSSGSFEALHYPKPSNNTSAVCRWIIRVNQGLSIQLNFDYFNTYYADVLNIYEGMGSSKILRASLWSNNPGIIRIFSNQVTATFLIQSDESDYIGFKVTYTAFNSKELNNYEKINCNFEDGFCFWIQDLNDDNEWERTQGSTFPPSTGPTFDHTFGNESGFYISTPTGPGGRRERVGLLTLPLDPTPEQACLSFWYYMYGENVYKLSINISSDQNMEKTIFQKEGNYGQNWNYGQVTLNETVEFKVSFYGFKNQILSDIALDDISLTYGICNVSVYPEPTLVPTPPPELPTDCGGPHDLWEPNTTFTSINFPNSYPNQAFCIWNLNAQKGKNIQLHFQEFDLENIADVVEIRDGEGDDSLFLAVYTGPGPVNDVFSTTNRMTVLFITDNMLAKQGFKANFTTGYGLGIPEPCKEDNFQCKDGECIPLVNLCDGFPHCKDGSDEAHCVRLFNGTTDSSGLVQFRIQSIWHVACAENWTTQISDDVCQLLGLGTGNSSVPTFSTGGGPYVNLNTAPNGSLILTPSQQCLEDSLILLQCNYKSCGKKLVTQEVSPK
Sequence of Enterokinase (P98072 801-1035): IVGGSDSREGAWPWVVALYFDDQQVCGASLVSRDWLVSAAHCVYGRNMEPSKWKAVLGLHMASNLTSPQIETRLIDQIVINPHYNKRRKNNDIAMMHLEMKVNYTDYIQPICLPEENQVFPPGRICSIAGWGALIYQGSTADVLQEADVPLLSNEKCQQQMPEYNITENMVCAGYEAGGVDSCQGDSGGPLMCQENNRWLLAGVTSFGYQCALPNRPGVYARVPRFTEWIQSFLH

Substance	inactivation of TNFα bioactivity, L929 cytotoxicity bioassay after overnight digestion	proteolytic activity towards TNFα and effect in the L929 bioassay
ADAM 10	ADAM 10 (column: Proteases that did not inactivate TNF)	
Enterokinase	Enterokinase (column: Proteases that did not inactivate TNF)	enterokinase has no proteolytic activity towards TNFα and no effect in the L929 bioassay
Furin	Furin (column: Proteases that did not inactivate TNF)	
Kallikrein5	Kallikrein5 (column: Proteases that did not inactivate TNF)	
MMP3	MMP3 (column: Proteases that did not inactivate TNF)	
MT5-MMP	MT5-MMP (column: Proteases that did not inactivate TNF)	
Plasmin	Plasmin (column: Proteases that did not inactivate TNF)	
Urokinase	Urokinase (column: Proteases that did not inactivate TNF)	
